The text below walks through data of article PMC5574827, “Improvement of the pharmacological activity of menthol via enzymatic β-anomer-selective glycosylation” (AMB Express, 2017).

Substrate in the data set: CC(C)[C@@H]1CC[C@@H](C)C[C@H]1O
Put plainly: LC-MS/MS (MRM) of menthol glucoside, Lineweaver-Burk. Particulars: UDP-glucose as sugar donor (2 mM in the general protocol), 1 mM MgCl2, 50 mM Tris-HCl pH 8.0, 30 °C, 10 min. It is filed as biochemical, Bacillus licheniformis.

B1: BLC (Bacillus licheniformis DSM 13 = ATCC 14580) (protein)
chain: MGHKHIAIFNIPAHGHINPTLALTASLVKRGYRVTYPVTDEFVKAVEETGAEPLNYRSTLNIDPQQIRELMKNKKDMSQAPLMFIKEMEEVLPQLEALYENDKPDLILFDFMAMAGKLLAEKFGIEAVRLCSTYAQNEHFTFRSISEEFKIELTPEQEDALKNSNLPSFNFEDMFEPAKLNIVFMPRAFQPYGETFDERFSFVGPSLAKRKFQEKETPIISDSGRPVMLISLGTAFNAWPEFYHMCIEAFRDTKWQVIMAVGTTIDPESFDDIPENFSIHQRVPQLEILKKAELFITHGGMNSTMEGLNAGVPLVAVPQMPEQEITARRVEELGLGKHLQPEDTTAASLREAVSQTDGDPHVLKRIQDMQKHIKQAGGAEKAADEIEAFLAPAGVK
notes: His-tagged, pET28a (BamHI/XhoI), expressed in E. coli BL21(DE3), Ni-NTA purified; cloned as in Wu et al. 2012
For the protein B1, the Km (usually the concentration of substrate that gives half-maximal velocity) came to 1740 ± 600 µM; the kcat (in general, the number of substrate molecules converted per active site and unit of time at saturation) came to 1.58 ± 0.0388 s⁻¹.
